PMC4503349

Molecular target: Recombinant human calcineurin, comprising CnAα and CnB subunits (human) (UniProt Q08209)

calmodulin (from UniProt P0DP23 1-149) (natural protein)
CaN phosphatase activity (malachite green, RIIP substrate) in a Ca2+/CM cross-titration; CaN:CM ratio that gives 50% activation at 500 μM Ca2+ (molar ratio (CaN:CM)): 1
